Test results reported in patent publication US20100095387A1, “METHODS AND REAGENTS FOR SCREENING NEW DRUGS AND FOR TREATING ION PUMP ASSOCIATED DISORDERS AND DISEASES” (priority 2005, published 2010).

Test system: cultured cortical neurons
Experiment: Firing properties of cultured cortical neurons in normal external solution
Assay type: cell-based, mouse
Conditions: absence of TTX and neurotransmitter receptor antagonists

B1: C-Ag15: 15-kD COOH-terminal fragment of agrin created by deleting 37 amino acids from the NH2 terminus of C-Ag20, SEQ. ID NO. 3 (protein)
chain: MDPWIGKAAERADYMALAIVDGHLQLSYDLASQPVVLRSTVKVNTNRWLRVRAHREHREGSLQVGNEAPVTSSSPLGATQLDTDGALWLGGLQKLPVGQPLPKAYGTGFVGCLRNVVGHRQLHLLEDAVTKPELRPCPTLNSKLGPEQKLISEEDLNSAVDHHHHHH
modifications: Synthetically produced sequence
frequency of spontaneous action potentials: inhibited spontaneous activity

B2: C-Ag20z0: C-Ag20 isoform having the z0 splice variant, SEQ. ID NO. 1 (protein)
chain: MDPRTYIEYLNAVTESEKALQSNHFELTLRTEATQGWLVLWIGKAAERADYMALAIVDGHLQLSYDLASQPVVLRSTVKVNTNRWLRVRAHREHREGSLQVGNEAPVTSSSPLGATQLDTDGALWLGGLQKLPVGQPLPKAYGTGFVGCLRNVVGHRQLHLLEDAVTKPELRPCPTLNSKLGPEQKLISEEDLNSAVDHHHHHH
modifications: Synthetically produced sequence
frequency of spontaneous action potentials: significant and reversible increase
